According to patent US20140234339A1 (JULIUS MAXIMILIANS UNIVERSIT T W RZBURG, published 2014):

Legend:
[1] = target: T1, IsaA (immunodominant structure IsaA of Staphylococcus aureus) (Staphylococcus aureus, UniProt P99160 30-233, limits assumed); assay: SPR (BIACORE 2000), UK66-2 captured via anti-Fab antibody, IsaA as analyte, 25 C, 1:1 Langmuir fit, two independent measurements
T1 construct: The ELISA text calls it soluble recombinant IsaA; also called IsaA antigen; soluble recombinant IsaA
T1 sequence (looked up): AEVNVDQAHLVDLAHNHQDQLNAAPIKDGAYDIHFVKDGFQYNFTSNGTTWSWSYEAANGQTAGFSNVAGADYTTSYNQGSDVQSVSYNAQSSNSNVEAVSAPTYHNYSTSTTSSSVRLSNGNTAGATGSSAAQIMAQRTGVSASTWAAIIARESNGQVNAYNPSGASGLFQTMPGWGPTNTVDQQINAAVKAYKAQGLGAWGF

[2] = target: T1, IsaA (immunodominant structure IsaA of …); assay: SPR (BIACORE 2000), UK66-2 captured via anti-Fab antibody, IsaA as analyte, 25 C, 1:1 Langmuir fit

B1: antibody UK66-2 (antibody, V domains shown)
VH: EVQLLESGGGLVQPGGSLRLSCAASGFTFSNYYMSWVRQAPGKGLEWVSDINGNGGSTYYPDTVKGRFTISRDNSKNTLYLQMNSLRAEDTAVYYCVRRGGYYALDYWGQGTTVTVSS
VL: DVVMTQTPLSLSVTPGQPASISCRSSQSLVHINGNTYLHWYLQKPGQSPQLLIYRVSNRFSGVPDRFSGSGSGTDFTLKISRVEAEDVGVYYCSQSTHVPWTFGGGTKLELKR
notes: In the SPR assay it was captured by an anti-Fab antibody; also called anti-IsaA antibody UK66-2
In the case of B1, the Kd [1] is reported as 4.8 nM, the koff [2] is reported as 0.0018 s⁻¹ and the kon [2] is reported as 370000 M⁻¹ s⁻¹.
